One assay addresses T1, hTWEAK-Fc (human, UniProt O43508).
T1 construct: Fc fusion; member of the panel m9
T1 sequence (looked up): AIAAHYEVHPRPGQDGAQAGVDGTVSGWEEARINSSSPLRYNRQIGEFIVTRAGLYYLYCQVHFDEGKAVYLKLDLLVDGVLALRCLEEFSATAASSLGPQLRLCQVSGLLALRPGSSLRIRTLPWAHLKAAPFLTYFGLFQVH
Description: direct ELISA on coated protein, IgG1.

The target in the next assay is T2, hVCAM-1 (human, UniProt P19320).
T2 construct: purified recombinant protein; member of the panel m9
T2 sequence (looked up): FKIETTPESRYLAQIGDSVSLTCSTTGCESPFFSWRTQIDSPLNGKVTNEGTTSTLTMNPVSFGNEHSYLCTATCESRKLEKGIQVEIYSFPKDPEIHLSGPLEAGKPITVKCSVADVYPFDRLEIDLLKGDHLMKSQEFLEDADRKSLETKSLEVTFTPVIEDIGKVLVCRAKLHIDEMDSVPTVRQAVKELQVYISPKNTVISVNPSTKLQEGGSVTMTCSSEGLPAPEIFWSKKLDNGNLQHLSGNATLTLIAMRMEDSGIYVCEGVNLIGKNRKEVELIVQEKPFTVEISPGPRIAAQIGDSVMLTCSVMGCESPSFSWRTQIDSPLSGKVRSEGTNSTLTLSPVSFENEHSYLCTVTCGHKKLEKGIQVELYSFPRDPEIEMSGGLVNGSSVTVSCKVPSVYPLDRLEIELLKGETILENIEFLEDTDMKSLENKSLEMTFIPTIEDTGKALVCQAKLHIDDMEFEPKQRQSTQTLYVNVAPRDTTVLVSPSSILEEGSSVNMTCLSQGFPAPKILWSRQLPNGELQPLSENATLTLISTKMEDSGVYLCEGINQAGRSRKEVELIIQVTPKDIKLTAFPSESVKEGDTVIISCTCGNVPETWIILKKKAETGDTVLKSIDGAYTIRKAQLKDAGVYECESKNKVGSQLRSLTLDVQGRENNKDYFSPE
Kind of assay: direct ELISA on coated protein, IgG1. Background: In an ELISA, binding on a coated surface is turned into a signal by an enzyme label.

The target in the next assay is T3, hVCAM-Fc.
T3 construct: member of the panel m9
T3 chain: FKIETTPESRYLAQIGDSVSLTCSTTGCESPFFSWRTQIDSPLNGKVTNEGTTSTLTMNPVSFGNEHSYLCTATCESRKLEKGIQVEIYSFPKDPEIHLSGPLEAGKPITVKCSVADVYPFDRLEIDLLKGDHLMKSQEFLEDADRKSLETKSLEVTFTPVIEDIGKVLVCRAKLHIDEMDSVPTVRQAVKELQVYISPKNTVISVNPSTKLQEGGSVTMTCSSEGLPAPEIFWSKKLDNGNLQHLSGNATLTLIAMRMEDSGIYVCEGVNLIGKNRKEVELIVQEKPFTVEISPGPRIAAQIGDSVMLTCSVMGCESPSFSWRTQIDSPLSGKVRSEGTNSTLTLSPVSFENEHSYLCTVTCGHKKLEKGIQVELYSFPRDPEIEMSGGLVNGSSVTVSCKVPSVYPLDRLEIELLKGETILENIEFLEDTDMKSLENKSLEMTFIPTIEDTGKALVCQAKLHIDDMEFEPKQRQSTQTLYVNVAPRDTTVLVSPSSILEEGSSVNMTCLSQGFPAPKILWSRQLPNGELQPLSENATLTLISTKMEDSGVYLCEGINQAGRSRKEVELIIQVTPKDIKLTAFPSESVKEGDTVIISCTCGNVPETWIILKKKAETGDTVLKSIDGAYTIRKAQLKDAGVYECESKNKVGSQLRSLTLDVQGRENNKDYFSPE
Description: direct ELISA on coated protein, IgG1.

A further assay has as its target T4, h4-1BB-Fc.
T4 construct: member of the panel m9
Kind of assay: direct ELISA on coated protein, IgG1.

The target of a further assay is T5, hICAM-1-Fc (human, UniProt P05362).
T5 construct: Fc fusion; member of the panel m9
T5 sequence (P05362 28-480 limits assumed): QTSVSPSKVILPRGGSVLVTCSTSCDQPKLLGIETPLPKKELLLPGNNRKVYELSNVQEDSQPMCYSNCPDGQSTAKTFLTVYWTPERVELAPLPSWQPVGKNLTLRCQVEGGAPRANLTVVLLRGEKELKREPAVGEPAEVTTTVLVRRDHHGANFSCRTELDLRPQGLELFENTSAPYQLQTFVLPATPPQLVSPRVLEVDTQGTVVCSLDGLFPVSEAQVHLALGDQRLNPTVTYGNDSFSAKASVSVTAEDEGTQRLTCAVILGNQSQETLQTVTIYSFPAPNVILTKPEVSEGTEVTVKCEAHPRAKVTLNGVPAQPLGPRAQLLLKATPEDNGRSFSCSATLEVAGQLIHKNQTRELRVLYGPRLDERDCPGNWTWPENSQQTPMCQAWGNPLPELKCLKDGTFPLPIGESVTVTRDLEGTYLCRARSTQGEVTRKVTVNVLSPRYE
Description: direct ELISA on coated protein, IgG1.

In a further assay the target is T6, hDR3-Fc (human, UniProt Q93038).
T6 construct: Fc fusion; member of the panel m9
T6 sequence (looked up): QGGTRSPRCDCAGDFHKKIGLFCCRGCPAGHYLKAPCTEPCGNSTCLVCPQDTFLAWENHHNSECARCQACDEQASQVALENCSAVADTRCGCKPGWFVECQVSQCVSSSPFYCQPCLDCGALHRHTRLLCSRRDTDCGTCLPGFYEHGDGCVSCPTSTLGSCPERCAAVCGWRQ
Description: direct ELISA on coated protein, IgG1.

Another assay addresses T7, hBAFFR-Fc (human, UniProt Q96RJ3).
T7 construct: Fc fusion; member of the panel m9
Kind of assay: direct ELISA on coated protein, IgG1.

The target in a further assay is T8, hLTBR-Fc (human, UniProt P36941).
T8 construct: Fc fusion; member of the panel m9
T8 sequence (P36941 28-227 limits assumed): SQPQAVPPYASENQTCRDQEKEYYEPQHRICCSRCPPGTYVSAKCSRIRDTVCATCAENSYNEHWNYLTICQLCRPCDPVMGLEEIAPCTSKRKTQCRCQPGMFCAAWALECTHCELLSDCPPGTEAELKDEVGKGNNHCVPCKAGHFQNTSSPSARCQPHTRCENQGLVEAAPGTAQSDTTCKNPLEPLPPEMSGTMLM
Description: direct ELISA on coated protein, IgG1.

For the next assay, the target named is T9, hOX40-Fc.
T9 construct: member of the panel m9
T9 chain: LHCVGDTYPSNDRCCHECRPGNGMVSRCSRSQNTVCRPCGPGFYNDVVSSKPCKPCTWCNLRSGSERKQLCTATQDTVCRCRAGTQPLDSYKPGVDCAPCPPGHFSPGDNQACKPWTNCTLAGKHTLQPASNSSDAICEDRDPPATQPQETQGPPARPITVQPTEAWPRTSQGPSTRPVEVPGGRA
Description: direct ELISA on coated protein, IgG1.

A further assay has as its target T10, hDR6-Fc (human, UniProt O75509).
T10 construct: Fc fusion; member of the panel m9
T10 sequence (looked up): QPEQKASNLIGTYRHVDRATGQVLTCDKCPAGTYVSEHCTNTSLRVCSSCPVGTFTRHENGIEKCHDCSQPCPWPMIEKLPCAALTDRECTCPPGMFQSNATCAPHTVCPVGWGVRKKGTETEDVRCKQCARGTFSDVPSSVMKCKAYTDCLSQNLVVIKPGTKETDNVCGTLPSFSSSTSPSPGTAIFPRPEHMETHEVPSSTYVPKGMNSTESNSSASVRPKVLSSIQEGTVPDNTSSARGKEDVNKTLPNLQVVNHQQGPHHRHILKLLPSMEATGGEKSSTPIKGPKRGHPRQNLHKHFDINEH
Description: direct ELISA on coated protein, IgG1.

The next assay addresses T11, hCMET-Fc (The natural ectodomain is cleaved by furin after residue 307 into disulfide-linked alpha and beta chains. It is given here as one continuous stretch.).
T11 construct: member of the panel m9
T11 chain: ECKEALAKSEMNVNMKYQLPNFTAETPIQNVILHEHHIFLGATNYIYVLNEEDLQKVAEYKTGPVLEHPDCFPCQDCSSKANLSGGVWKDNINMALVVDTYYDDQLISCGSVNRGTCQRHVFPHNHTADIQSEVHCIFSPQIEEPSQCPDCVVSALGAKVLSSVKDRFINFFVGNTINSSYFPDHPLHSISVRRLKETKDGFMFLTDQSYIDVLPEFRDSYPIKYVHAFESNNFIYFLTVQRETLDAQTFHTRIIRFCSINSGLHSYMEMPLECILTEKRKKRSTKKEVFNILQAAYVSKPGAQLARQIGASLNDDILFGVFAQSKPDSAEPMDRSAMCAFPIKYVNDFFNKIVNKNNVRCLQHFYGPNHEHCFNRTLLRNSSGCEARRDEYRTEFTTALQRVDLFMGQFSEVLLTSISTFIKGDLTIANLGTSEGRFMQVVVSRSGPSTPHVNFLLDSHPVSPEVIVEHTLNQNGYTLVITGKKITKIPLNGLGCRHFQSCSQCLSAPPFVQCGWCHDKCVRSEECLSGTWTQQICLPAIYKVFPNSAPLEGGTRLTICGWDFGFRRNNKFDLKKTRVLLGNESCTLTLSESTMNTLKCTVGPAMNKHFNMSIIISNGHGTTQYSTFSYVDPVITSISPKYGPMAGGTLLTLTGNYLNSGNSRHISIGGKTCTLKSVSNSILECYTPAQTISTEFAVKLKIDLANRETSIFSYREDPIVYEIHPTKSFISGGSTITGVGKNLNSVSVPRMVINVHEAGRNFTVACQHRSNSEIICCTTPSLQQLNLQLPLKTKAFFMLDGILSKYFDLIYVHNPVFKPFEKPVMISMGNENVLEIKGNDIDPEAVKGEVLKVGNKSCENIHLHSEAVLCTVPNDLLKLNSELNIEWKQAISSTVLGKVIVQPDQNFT
Kind of assay: direct ELISA on coated protein, IgG1.

The target of the next assay is T12, hEpCAM-Fc (human, UniProt P16422).
T12 construct: Fc fusion; member of the panel m9
T12 sequence (looked up): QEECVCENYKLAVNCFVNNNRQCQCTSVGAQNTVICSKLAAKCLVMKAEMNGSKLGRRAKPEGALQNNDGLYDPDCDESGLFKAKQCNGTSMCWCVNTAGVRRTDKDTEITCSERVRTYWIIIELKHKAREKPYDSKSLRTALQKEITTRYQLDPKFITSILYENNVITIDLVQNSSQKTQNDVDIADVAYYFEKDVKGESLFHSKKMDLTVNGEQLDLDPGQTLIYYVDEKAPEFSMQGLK
Description: direct ELISA on coated protein, IgG1.

In another assay the target is T13, hCD4 (human, UniProt P01730).
T13 construct: purified recombinant protein; member of the panel m9
Description: direct ELISA on coated protein, IgG1.

Assay [1] deals with T14, human C-KIT-Fc (human, UniProt P10721 26-524).
T14 construct: also called biotinylated human C-KIT-Fc; not shown: Fc part not described
Description: direct titration ELISA on coated C-KIT-Fc, IgG1 format.

Assay [2] concerns the target T15, cynomolgus monkey C-KIT-Fc (cynomolgus monkey).
T15 construct: also called cyno C-KIT-Fc
Description: direct ELISA at 1 µg/ml.

Assay [3] addresses T14, human C-KIT-Fc. Description: direct ELISA at 1 µg/ml.

The values that follow come from patent US20200283521A1 (GRANULAR THERAPEUTICS, published 2020).

T4 sequence (chain, as listed by the source limits assumed): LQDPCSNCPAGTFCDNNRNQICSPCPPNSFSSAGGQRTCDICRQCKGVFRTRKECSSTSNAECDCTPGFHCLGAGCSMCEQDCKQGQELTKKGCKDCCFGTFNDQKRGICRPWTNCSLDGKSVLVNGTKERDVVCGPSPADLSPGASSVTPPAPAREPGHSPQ
T7 sequence (Q96RJ3 7-71 limits assumed): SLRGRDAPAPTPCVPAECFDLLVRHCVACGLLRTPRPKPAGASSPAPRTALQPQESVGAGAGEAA

B1: E-C2 (antibody, IgG1, V domains shown)
VH: QVQLVQSGAEVKKPGASVKVSCKASGYTFTDYYMNWVRQAPGQGLEWMGRIYPGSGNTYYAQKFQGRVTMTRDTSTSTVYMELSSLRSEDTAVYYCARGVYYLDYWGQGTLVTVSS
VL: DIQMTQSPSSLSASVGDRVTITCRASQGIRTNVAWLQQKPGKAPKSLIYSASYRQSGVPSRFSGSGSGTDFTLTISSLQPEDFATYYCQQYNSYPRTFGGGTKVEIK
notes: IgG1; also called C-KIT-E-C2
Consider B1, for which the binding result in the assay with hTWEAK-Fc, with hVCAM-1, in the assay with hVCAM-Fc, with h4-1BB-Fc, with hICAM-1-Fc and with hDR3-Fc was “no binding (tested: 1 µg/ml)” throughout. The binding result with hBAFFR-Fc, with hLTBR-Fc, in the assay with hOX40-Fc, with hDR6-Fc, with hCMET-Fc and with hEpCAM-Fc was “no binding (tested: 1 µg/ml)” throughout. The binding result with hCD4 is listed as “no binding (tested: 1 µg/ml)”. In the assay with human C-KIT-Fc [1], the EC50 (read off the curve) (as a rule, the concentration that produces a half-maximal response) is around 0.1 µg/mL. Besides, the OD450 nm is above 2 OD450 nm in assay [2] and above 1.8 OD450 nm with human C-KIT-Fc [3].
